Reference: publication PMC7807878, “Development of an engineered peptide antagonist against periostin to overcome doxorubicin resistance in breast cancer” (BMC Cancer, 2021)

Target: T1, recombinant PN (rPN) (UniProt Q15063 22-836)
T1 construct: periostin (PN), recombinant, bought; also called periostin; source: bought: BioVendor (RD172045025)
T1 sequence (looked up): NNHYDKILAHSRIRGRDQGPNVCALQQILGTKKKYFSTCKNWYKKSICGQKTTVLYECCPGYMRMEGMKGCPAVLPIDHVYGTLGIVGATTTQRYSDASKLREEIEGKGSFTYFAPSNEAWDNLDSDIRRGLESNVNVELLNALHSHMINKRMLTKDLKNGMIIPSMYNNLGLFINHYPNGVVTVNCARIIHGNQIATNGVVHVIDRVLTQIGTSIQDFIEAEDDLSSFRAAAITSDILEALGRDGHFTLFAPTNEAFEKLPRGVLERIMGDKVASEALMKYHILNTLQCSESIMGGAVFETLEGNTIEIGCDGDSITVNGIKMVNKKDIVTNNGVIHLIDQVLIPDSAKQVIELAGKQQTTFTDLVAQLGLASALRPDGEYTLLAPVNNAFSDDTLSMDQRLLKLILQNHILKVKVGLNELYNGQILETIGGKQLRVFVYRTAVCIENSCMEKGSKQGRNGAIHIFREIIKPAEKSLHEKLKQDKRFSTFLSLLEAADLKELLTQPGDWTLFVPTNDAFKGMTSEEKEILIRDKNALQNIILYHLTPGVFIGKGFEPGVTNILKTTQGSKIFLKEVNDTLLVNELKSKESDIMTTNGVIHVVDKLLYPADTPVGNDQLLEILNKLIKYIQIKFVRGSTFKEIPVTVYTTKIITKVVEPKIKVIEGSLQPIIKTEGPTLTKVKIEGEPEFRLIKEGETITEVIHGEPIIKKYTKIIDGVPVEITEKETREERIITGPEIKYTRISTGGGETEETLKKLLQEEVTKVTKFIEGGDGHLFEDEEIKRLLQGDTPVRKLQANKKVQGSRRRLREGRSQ
Assay: ITC; MicroCal PEAQ-ITC; 700 nM rPN (or BSA) and 100 nM plain anti-PN peptide in 50 mM Tris, 150 mM NaCl, pH 7.5, in syringe and cell compartments
Conditions: both partners purified

Kd: 1 pM
B1: plain anti-PN peptide (peptide)
peptide: TFATHGKHWAAP
notes: The methods mention C-terminal amidation after describing the FITC-labelled form; it is not clear whether the plain peptide is amidated too; also called candidate anti-PN peptide; source: synthetic peptide (ordered from Syn Peptide company, Shanghai)
